Patent CN116813757A (INST MICROBIOLOGY CAS, dated 2023)

Target: SARS-CoV-2原始毒株的RBD蛋白 (SARS-CoV-2 RBD-his蛋白) (SARS-CoV-2 original strain, UniProt P0DTC2 319-541)

B1: 单链纳米抗体R14 (R14-his蛋白) (VHH)
VHH: QVQLQESGGGLVQPGGSLRLSCAVSGFTLDYYAIGWFRQAPGKEREGVSCISSSDGSTSYADSVKGRFTISRDNAKNTVYLQMNSLKPEDTALYYCAATPATYYSGRYYYQCPAGGMDYWGQGTQVTVSS
Kd: < 0.1 nM
